Measured values reported in article PMC11660155.

Tests used:
[1] = target: scCSGal-1–6H M120L Q142AzK-ss-bio (human); assay: BLI; Octet RED96e; streptavidin tips loaded with 60 ug/mL biotinylated scCSGal-1 protein; vWF at 25 ug/mL as analyte; association 600 s, dissociation 150 s; PBS with 0.05% Tween 20 and 0.1% BSA, pH 7.4; 25 °C, 1000 rpm; read-out Rt = response at 600 s
[2] = target: scCSGal-1–6H M120L R141AzK-ss-bio (human); assay: as above

Rt (specific BLI response at 600 s) [1]: 0.14 nm | Rt (specific BLI response at 600 s) [2]: 0.32 nm
Substance: von Willebrand factor (from UniProt P04275 764-2813) (natural protein)
